The values below come from publication PMC10950897 (Nature Communications, 2024).

Assay [1] deals with T1, His6-p97 WT (human, UniProt P55072 1-806).
T1 construct: p97/VCP, human; from plasmid pET15b-His6-p97; hexamer by mass photometry (535 kDa); also called recombinant p97; purified p97; source: E. coli BL21(DE3), purified (Ni-NTA, Superose 6)
Kind of assay: SPR; Biacore T200, 25 C, His6-p97 amine-coupled to CM5 chip (~400 RU), Strep-HA-VCF1 full-length as analyte up to 100 nM, PBS-P with 0.5 mM TCEP, 1:1 model. Conditions: both partners purified. In general terms: Surface plasmon resonance follows binding to a sensor surface in real time, without labels.

In assay [2] the target is T1, His6-p97 WT. Kind of assay: pull-down; biotinylated VRM, VIM or VBM peptides immobilized on StrepTactin agarose, incubated with purified WT or mutant His6-p97, washed extensively in RIPA buffer, immunoblot. Conditions: both partners purified. In general terms: A western blot detects proteins with antibodies after separation by electrophoresis.

One may read the Kd as the equilibrium constant for the complex coming apart.

Where no end group is shown, it is not given here. The star is where a group is joined. Biotin = O=C1N[C@H]2[C@H](CS[C@H]2CCCCC(=O)*)N1

T1 sequence (P55072 whole entry): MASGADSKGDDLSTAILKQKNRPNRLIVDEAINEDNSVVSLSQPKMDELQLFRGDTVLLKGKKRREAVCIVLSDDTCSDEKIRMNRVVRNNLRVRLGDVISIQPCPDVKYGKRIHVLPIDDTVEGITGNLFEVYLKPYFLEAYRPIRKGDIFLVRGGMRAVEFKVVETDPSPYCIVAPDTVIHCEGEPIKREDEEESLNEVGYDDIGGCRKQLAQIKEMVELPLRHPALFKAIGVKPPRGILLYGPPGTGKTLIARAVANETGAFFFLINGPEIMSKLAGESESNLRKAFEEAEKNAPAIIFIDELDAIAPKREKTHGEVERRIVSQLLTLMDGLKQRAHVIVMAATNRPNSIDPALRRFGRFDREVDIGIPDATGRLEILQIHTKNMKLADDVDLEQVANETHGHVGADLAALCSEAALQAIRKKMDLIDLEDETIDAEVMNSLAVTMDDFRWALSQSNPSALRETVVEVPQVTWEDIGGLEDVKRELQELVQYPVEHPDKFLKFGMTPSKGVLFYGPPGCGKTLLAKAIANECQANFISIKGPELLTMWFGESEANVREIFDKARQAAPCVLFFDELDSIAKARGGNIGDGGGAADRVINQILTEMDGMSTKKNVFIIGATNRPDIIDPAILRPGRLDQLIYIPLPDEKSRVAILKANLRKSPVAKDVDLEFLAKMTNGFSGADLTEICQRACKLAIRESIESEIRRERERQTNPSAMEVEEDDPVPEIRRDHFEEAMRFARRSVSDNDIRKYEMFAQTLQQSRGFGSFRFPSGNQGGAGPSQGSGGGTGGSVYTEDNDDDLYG

B1: Strep-HA-VCF1 WT (natural protein)
chain: not shown
notes: VCF1 (FAM104A), human, isoform 1, 186 amino acids; cDNA inserted into pcDNA5/FRT/TO/Strep-HA; also called recombinant VCF1; full-length VCF1; source: HEK293-EBNA1-6E, transfected, purified (Strep-Tactin, Superose 6)
In the assay with His6-p97 WT [1], B1 had a Kd of around 10 nM.

B2: VBM (ATXN3, aa275-295) peptide (peptide)
peptide: Biotin-NLTSEELRKRREAYFEKQQQK
notes: ATXN3 (ataxin-3), human, VBM motif, aa275-295; also called peptide spanning the VBM in ATXN3; source: synthetic peptide, bought: GenScript
With B2, the binding result with His6-p97 WT [2] was “binds”.

B3: VIM (SVIP, aa14-39) peptide (peptide)
peptide: Biotin-PTPDLEEKRAKLAEAAERRQKEAAS
notes: SVIP, human, VIM motif; also called peptide spanning the VIM in SVIP; source: synthetic peptide, bought: GenScript
B3: the binding result with His6-p97 WT [2] is “binds”.
